Source: article PMC10418980, “Synthesis and Evaluation of ^177Lu-DOTA-PD-L1-i and ^225Ac-HEHA-PD-L1-i as Potential Radiopharmaceuticals for Tumor Microenvironment-Targeted Radiotherapy” (International Journal of Molecular Sciences, 2023)

Tests used:
[1] = system: mice inoculated with HCC827 lung cancer cells; assay: Creatinine and liver enzyme levels; format: in vivo
Procedure: Mouse blood samples collected at 96 h after radiopharmaceutical administration were used for the determination of alanine aminotransferase (ALT), creatinine, and aspartate aminotransferase (AST). Creatinine was measured titrimetrically. The picrate method was used. AST and ALT were quantified using a Roche Diagnostics kit for UV assays.

[2] = system: HCC827 human lung cancer cells (PD-L1 positive) vs C6 mouse glioma cells (PD-L1 negative); assay: Cellular uptake assay; format: cell-based; conditions: 1 × 10^5 cells/tube in PBS pH 7, 37 °C, 1 h; 177Lu 4 kBq, 225Ac 0.04 kBq; NaI(Tl) counting; n = 6 / n = 3 (method)
Procedure: HCC827 human lung cancer (PD-L1 positive) and C6 mouse glioma (PD-L1 negative) cell lines were cultured in RPMI-1640 medium with penicillin and streptomycin (100 µg/mL) and fetal bovine serum (15%) in 5% CO2 at 37 °C. Cells diluted in PBS (pH 7) (1 × 10^5 cells/tube) received two different treatments: (a) ^177Lu-DOTA-PD-L1-i (4 kBq) (n = 3) and (b) ^225Ac-HEHA-PD-L1-i (0.04 kBq) (n = 3). Cells were incubated with each treatment at 37 °C for 1 h. After incubation, tubes were measured in a NaI(Tl) detector to determine the initial activity (100%). The tubes were centrifuged at 500× g for 10 min. Then, a mixture of acetic acid/0.5 M NaCl was added, and the centrifugation was repeated. The liquid was removed, and the button activity was measured, corresponding to the percentage of activity captured by the cells regarding the initial activity.

[3] = system: kidney and liver tissues from mice; assay: Histopathological assessment (H&E); format: in vivo; conditions: mice exposed to the radiopharmaceuticals
Procedure: Healthy lungs, kidneys, liver, and lungs from mice injected i.v. with HCC827 cells were fixed with 4% paraformaldehyde for 24 h at room temperature, embedded in paraffin, and sectioned in 4–5 µm thick sections using a microtome. Paraffin sections of lung samples were deparaffinized in xylene and rehydrated in a series of graded alcohols. Dewaxed tissue sections were stained with hematoxylin and eosin (H&E). The sections were assessed using a light microscope (magnification of 100x) (Zeiss; Mod. Axioscope: Oberkochen, Germany). Images were acquired with a digital camera (5 MP high-speed color; AmScope; Mod.Mu500: Irvine, CA, USA).

Q: Which results are given for `CCCC[C@H]1C(=O)N(C)[C@@H](CCCC)C(=O)N[C@@H](CCCNC(=S)Nc2ccc(C[C@H]3CN(CC(=O)O)CCN(CC(=O)O)CCN(CC(=O)O)CCN3CC(=O)O)cc2)C(=O)N[C@H](C(=O)NCC(N)=O)CSCC(=O)N[C@@H](Cc2ccc(O)cc2)C(=O)N(C)[C@@H](C)C(=O)N[C@@H](CC(N)=O)C(=O)N2CCC[C@H]2C(=O)N[C@@H](Cc2c[nH]cn2)C(=O)N[C@@H](CC(C)C)C(=O)N2C[C@H](O)C[C@H]2C(=O)N[C@@H](Cc2c[nH]c3ccccc23)C(=O)N[C@@H](CO)C(=O)N[C@@H](Cc2cn(C)c3ccccc23)C(=O)N1C` [^177Lu-DOTA-PD-L1-i, metal not drawn]?
A: Creatinine ([1]; 96 h after 3.7 MBq 177Lu or 3.7 kBq 225Ac, day 5 after i.v. HCC827 inoculation, mean ± SD, n = 3, control 0.198 ± 0.057): 0.199 ± 0.062 mg/dL; Alanine Aminotransferase (ALT) ([1]; 96 h after 3.7 MBq 177Lu or 3.7 kBq 225Ac, day 5 after i.v. HCC827 inoculation, mean ± SD, n = 3, control 71 ± 7): 68 ± 4 IU/L; Aspartate Aminotransferase (AST) ([1]; 96 h after 3.7 MBq 177Lu or 3.7 kBq 225Ac, day 5 after i.v. HCC827 inoculation, mean ± SD, n = 3, control 150 ± 13): 143 ± 14 IU/L; effect on the function of liver and kidney ([1]; ALT, creatinine, AST vs control group (Table A1)): No significant cytotoxic effect; uptake in HCC827 cells relative to C6 cells [2]: approximately fourteen; histological staining (H&E) of liver and kidney [3]: no pathologic changes in the liver and kidney
